{"source": "patent US20230348564A1", "about": "“ANTI-CANCER PROTEINS” (UNICHEM LABORATORIES LTD, priority 2020, published 2023)", "molecules": {"B1": {"name": "SEQ ID NO. 2: recombinant lectin; variant of the S. rolfsii lectin amino acid sequence (reported as Rec-2 in WO 2010/095143) (protein)", "chain": "TYKITVRVYQTNPDAFFHPVEKTVWKYANGGTWTITDDQHVLTMGGSGTSGTLRFHADNGESFTATFGVHNYKRWCDIVTNLAADETGMVINQQYYSQKNREEARERQLSNYQVKNAKGRNFQIVYTEAEGNDLHANLIIG", "modifications": "In vitro synthesis"}}, "key": {"[1]": {"system": "T24 (Human Bladder Cancer)", "assay": "MTT cytotoxicity assay", "details": "48h", "method": "(§1) All the cancer cell lines were procured from National Centre for Cell Science, Pune (India). Cell lines were maintained under conditions as mentioned in Table 23. The cell lines were sub-cultured by trypsinization followed by splitting the cell suspension into fresh flasks and supplementing with fresh culture medium.\n(§2) All the cell lines were grown in specified media at 37° C. with 95% Humidity and 5% CO2.\n(§3) The cells were trypsinized, counted by Trypan blue method in Neuebauer's Chamber and plated in wells of flat bottom 96-well plate at the density corresponding to 10×10^3 cells/well/200 μL medium.\n(§4) Following overnight incubation, the media in the plate was replenished with 180 μL/well and then the cells were treated with 20 μL of each test item at concentrations ranging from 2.5 μg/mL-80 μg/mL in triplicates, so that the total volume in each well is 200 μL.\n(§5) The untreated cells served as negative control. The cells were incubated with the test items or positive control for a time period of 48h. Following incubation, the cell cytotoxicity was estimated using MTT assay. Absorbance was measured at 540 nm. The percentage cytotoxicity corresponding to each treatment was calculated using the formula:\n(§6) % Cytotoxicity=(1−X/R)*100\n(§7) Where X=absorbance of wells corresponding to treated cells R=absorbance of untreated cells (cells maintained in growth medium only)\n(§8) IC50 value was calculated using Graph-Pad Prism version 4.01 software."}, "[2]": {"system": "PANC-1 (Human pancreatic epitheloid carcinoma)", "assay": "MTT cytotoxicity assay", "details": "48h", "method": "as §1, §2, §3, §4, §5, §6, §7, §8"}, "[3]": {"system": "PBMCs (Peripheral blood mononuclear cells)", "assay": "MTT cytotoxicity assay", "details": "48h", "method": "as §1, §2, §3, §4, §5, §6, §7, §8"}, "[4]": {"system": "MDA-MB-453 (Human breast metastatic carcinoma)", "assay": "MTT cytotoxicity assay", "details": "48h", "method": "as §1, §2, §3, §4, §5, §6, §7, §8"}, "[5]": {"system": "MIA PaCa-2 (Human pancreatic carcinoma)", "assay": "MTT cytotoxicity assay", "details": "48h", "method": "as §1, §2, §3, §4, §5, §6, §7, §8"}, "[6]": {"system": "T-47D (Human mammary gland ductal carcinoma)", "assay": "MTT cytotoxicity assay", "details": "48h", "method": "as §1, §2, §3, §4, §5, §6, §7, §8"}, "[7]": {"system": "Notch-1", "assay": "biomarker levels in IOMM-Lee by ELISA", "format": "cell-based, Human", "details": "1 μg/mL-80 μg/mL, 48 h", "text": "Effect of SEQ ID No 2 on the expression of following 7 biomarkers were estimated in Human Meningioma cell line (IOMM-Lee) using multiplex analysis: TNF-alpha, VEGF, VEGFR2, HGF, HGFR/c-MET, PDGF-BB, and Contactin-1. Levels of another marker, Notch-1 were also estimated by ELISA in the same cell line. These 8 biomarkers play very crucial role in the pathogenesis and progression of Brain Tumor. […] Supernatants were collected and the levels of these 8 markers were investigated."}, "[8]": {"system": "KB", "assay": "cell based in vitro cytotoxicity/anti-proliferation assay (summary)", "parameters": "species or system Human", "details": "Cervical", "method": "The percentage cytotoxicity was calculated using the statistical tool."}, "[9]": {"system": "MDA-MB-231", "assay": "JC-1 assay, mitochondrial membrane depolarization", "format": "cell-based, Human", "details": "16h", "method": "(§9) To evaluate the in vitro apoptotic effect of recombinant lectin having the amino acid sequence of SEQ ID NO.2 in MDA-MB-231 (breast cancer) and PANG-1 (pancreatic cancer) cell line by JC-1 assay, an increase in mitochondrial membrane depolarization was used as a marker of apoptosis. […] 2 using JC-1 dye based method. […] The cell lines were grown in Dulbecco's Modified Eagle Medium (DMEM)+10% heat inactivated FBS at 37° C. (95% humidity and 5% CO2). […] Recombinant lectin having the amino acid sequence of SEQ ID NO. 2 was diluted in serum free medium. Doxorubicin was used as positive control and stock solution was prepared in dimethyl sulfoxide (DMSO). […] The cells were then incubated overnight under growth conditions to allow the cell recovery and exponential growth. Cells were treated with the recombinant lectin of SEQ ID NO. […] Following respective treatments the cells in the above plate were incubated for 16h in CO2 incubator at 37° C., 5% CO2 and 95% humidity.\n(§10) After 16h of incubation, the supernatants were discarded and 100 μL of JC1-dye solution (prepared by diluting 1 mM DMSO stock in to 10 μM in 1×PBS) was added to each well. The cells were then incubated with the dye in CO2 incubator at 37° C. for 15 min. After 15 min of incubation, the supernatant was removed and the cells were washed twice with 1×PBS and then 100 μL of 1×PBS was added to each well. Red fluorescence (excitation 550 nm, emission 600 nm) and green fluorescence (excitation 485 nm, emission 535 nm) were measured using Biotek Synergy FIT plate reader. The mitochondrial membrane potential […] was calculated as the ratio of intensity of red fluorescence to intensity of green fluorescence described as follows:\n(§11) ΔΨM=Intensity of red fluorescence/Intensity of green fluorescence\n(§12) The percentage decrease of Red fluorescence/Green fluorescence corresponding to each treatment was calculated using the following formula:\n(§13) Where X=Δψm corresponding to treated cells R=ΔΨM corresponding to control wells."}, "[10]": {"system": "PANC-1", "assay": "JC-1 assay, mitochondrial membrane depolarization", "format": "cell-based, Human", "details": "16h", "method": "as §9, §10, §11, §12, §13"}, "[11]": {"system": "MDA-MB-231"}}, "data": [{"molecule": "B1", "values": [{"measurement": "IC50", "setting": "[1]", "value": 10.4, "unit": "µg/mL"}, {"measurement": "IC50", "setting": "[2]", "value": 24.3, "unit": "µg/mL"}, {"measurement": "IC50", "setting": "[3]", "value": ">80", "unit": "µg/mL"}, {"measurement": "IC50", "setting": "[4]", "value": ">80", "unit": "µg/mL"}, {"measurement": "IC50", "setting": "[5]", "value": ">80", "unit": "µg/mL"}, {"measurement": "IC50", "setting": "[6]", "value": ">80", "unit": "µg/mL"}, {"measurement": "Percentage inhibition on levels of Notch-1", "setting": "[7]", "value": "81.2%-99.8%"}, {"measurement": "% Cytotoxicity", "setting": "[8]", "value": 64.0, "unit": "%"}, {"measurement": "Average Green fluorescence", "setting": "[9]; 2.5 μg/mL", "value": 703.0}, {"measurement": "Average Red fluorescence", "setting": "[9]; 2.5 μg/mL", "value": 769.7}, {"measurement": "Percentage decrease in MMP (%)", "setting": "[9]; 2.5 μg/mL", "value": 54.1, "unit": "%"}, {"measurement": "Red/Green ratio", "setting": "[9]; 2.5 μg/mL", "value": 1.09}, {"measurement": "depolarization of mitochondrial membrane", "setting": "[9]; 2.5 μg/mL-80 μg/mL", "value": "19.8%-54.1%"}, {"measurement": "Average Green fluorescence", "setting": "[9]; 5 μg/mL", "value": 560.0}, {"measurement": "Average Red fluorescence", "setting": "[9]; 5 μg/mL", "value": 709.3}, {"measurement": "Percentage decrease in MMP (%)", "setting": "[9]; 5 μg/mL", "value": 46.9, "unit": "%"}, {"measurement": "Red/Green ratio", "setting": "[9]; 5 μg/mL", "value": 1.27}, {"measurement": "Average Green fluorescence", "setting": "[9]; 10 μg/mL", "value": 596.3}, {"measurement": "Average Red fluorescence", "setting": "[9]; 10 μg/mL", "value": 1098.3}, {"measurement": "Percentage decrease in MMP (%)", "setting": "[9]; 10 μg/mL", "value": 22.8, "unit": "%"}, {"measurement": "Red/Green ratio", "setting": "[9]; 10 μg/mL", "value": 1.84}, {"measurement": "Average Green fluorescence", "setting": "[9]; 20 μg/mL", "value": 497.3}, {"measurement": "Average Red fluorescence", "setting": "[9]; 20 μg/mL", "value": 929.3}, {"measurement": "Percentage decrease in MMP (%)", "setting": "[9]; 20 μg/mL", "value": 21.7, "unit": "%"}, {"measurement": "Red/Green ratio", "setting": "[9]; 20 μg/mL", "value": 1.87}, {"measurement": "Average Green fluorescence", "setting": "[9]; 40 μg/mL", "value": 535.7}, {"measurement": "Average Red fluorescence", "setting": "[9]; 40 μg/mL", "value": 1009.0}, {"measurement": "Percentage decrease in MMP (%)", "setting": "[9]; 40 μg/mL", "value": 21.0, "unit": "%"}, {"measurement": "Red/Green ratio", "setting": "[9]; 40 μg/mL", "value": 1.88}, {"measurement": "Average Green fluorescence", "setting": "[9]; 80 μg/mL", "value": 500.3}, {"measurement": "Average Red fluorescence", "setting": "[9]; 80 μg/mL", "value": 957.3}, {"measurement": "Percentage decrease in MMP (%)", "setting": "[9]; 80 μg/mL", "value": 19.8, "unit": "%"}, {"measurement": "Red/Green ratio", "setting": "[9]; 80 μg/mL", "value": 1.91}, {"measurement": "Average Green fluorescence", "setting": "[10]; 2.5 μg/mL", "value": 315.0}, {"measurement": "Average Red fluorescence", "setting": "[10]; 2.5 μg/mL", "value": 595.7}, {"measurement": "Percentage decrease in MMP (%)", "setting": "[10]; 2.5 μg/mL", "value": 9.5, "unit": "%"}, {"measurement": "Red/Green ratio", "setting": "[10]; 2.5 μg/mL", "value": 1.89}, {"measurement": "depolarization of mitochondrial membrane", "setting": "[10]; 2.5 μg/mL-80 μg/mL", "value": "9.5%-51.7%"}, {"measurement": "Average Green fluorescence", "setting": "[10]; 5 μg/mL", "value": 293.3}, {"measurement": "Average Red fluorescence", "setting": "[10]; 5 μg/mL", "value": 452.3}, {"measurement": "Percentage decrease in MMP (%)", "setting": "[10]; 5 μg/mL", "value": 26.2, "unit": "%"}, {"measurement": "Red/Green ratio", "setting": "[10]; 5 μg/mL", "value": 1.54}, {"measurement": "Average Green fluorescence", "setting": "[10]; 10 μg/mL", "value": 271.7}, {"measurement": "Average Red fluorescence", "setting": "[10]; 10 μg/mL", "value": 301.7}, {"measurement": "Percentage decrease in MMP (%)", "setting": "[10]; 10 μg/mL", "value": 46.9, "unit": "%"}, {"measurement": "Red/Green ratio", "setting": "[10]; 10 μg/mL", "value": 1.11}, {"measurement": "Average Green fluorescence", "setting": "[10]; 20 μg/mL", "value": 234.3}, {"measurement": "Average Red fluorescence", "setting": "[10]; 20 μg/mL", "value": 265.7}, {"measurement": "Percentage decrease in MMP (%)", "setting": "[10]; 20 μg/mL", "value": 45.8, "unit": "%"}, {"measurement": "Red/Green ratio", "setting": "[10]; 20 μg/mL", "value": 1.13}, {"measurement": "Average Green fluorescence", "setting": "[10]; 40 μg/mL", "value": 263.3}, {"measurement": "Average Red fluorescence", "setting": "[10]; 40 μg/mL", "value": 266.0}, {"measurement": "Percentage decrease in MMP (%)", "setting": "[10]; 40 μg/mL", "value": 51.7, "unit": "%"}, {"measurement": "Red/Green ratio", "setting": "[10]; 40 μg/mL", "value": 1.01}, {"measurement": "Average Green fluorescence", "setting": "[10]; 80 μg/mL", "value": 257.0}, {"measurement": "Average Red fluorescence", "setting": "[10]; 80 μg/mL", "value": 272.0}, {"measurement": "Percentage decrease in MMP (%)", "setting": "[10]; 80 μg/mL", "value": 49.4, "unit": "%"}, {"measurement": "Red/Green ratio", "setting": "[10]; 80 μg/mL", "value": 1.06}, {"measurement": "% Cytotoxicity", "setting": "[11]", "value": 60.9, "unit": "%"}]}]}
